Reference: the supplement of paper PMC7877785
± gives the uncertainty stated by the source.

Test: self-splicing fitness, log relative to wild type (ln ratio); higher = more splicing; Tetrahymena group I intron in knt gene, E. coli kanamycin selection, DiMSum; sequences stand for … in CUCUCU…GGAGGGAAAAGUUAUCAGGCAUGCACCUGGUAGCUAGUCUUUAAACCAAUAGAUUGCAUCGGUUUAAAAGGCAAGACCGUCAAAUUGCGGGAAAGGGGUCAACAGCCGUUCAGUACCAAGUCUCAGGGGAAACUUUGAGAUGGCCUUGCAAAGGGUAUGGUAAUAAGCUGACGGACAUGGUCCUAACCACGCAGCCAAGUCCUAAGUCAACAGAUCUUCUGUUGAUAUGGAUGCAGUUCACAGACUAAAUGUCGGUCGGGGAAGAUGUAUUCUUCUCAUAAGAUAUAGUCGGACCUCUCCUUAAUGGGAGCUAGCGGAUGAAGUGAUGCAACACUGGAGCCGCUGGGAACUAAUUUGUAUGCGAAAGUAUAUUGAUUAGUUUUGGAGUACUCGUGGUCG
How it was run: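 Fitness was computed with DiMSum as the error-weighted combination of replicate fold changes, kanamycin versus none, each normalised to wild type. The library randomised all eight intron nucleotides of the P1ex region, with the intron placed in the knt kanamycin-resistance gene on pET-22b(+) in E. coli BL21(DE3). Six replicate transformations were grown overnight at 37°C or 30°C on LB agar with or without 25 μg/mL kanamycin, plus 100 μg/mL carbenicillin, 50 μM IPTG and 0.2% rhamnose. Pooled colonies were amplicon-sequenced on an Illumina HiSeq 2500.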

Sequence | self-splicing fitness (ln) (30 °C) | self-splicing fitness (ln) (37 °C)
GCUAAGCAAUAUUACGAUUA | -1.63 ± 0.22 | -0.39 ± 0.18
ACAAAGCAAUAUUACGUCUG | -1.1 ± 0.056 | -0.244 ± 0.074
AGCAAGCAAUAUUACGAAUU | -2.55 ± 0.08 | -1.68 ± 0.09
AUCGAGCAAUAUUACGCUUG | -2.41 ± 0.18 | -1.1 ± 0.3
CUAUAGCAAUAUUACGCGGA | -1.13 ± 0.49 | –
GUUUAGCAAUAUUACGAAAG | -1.07 ± 0.18 | -0.341 ± 0.22
CGUGAGCAAUAUUACGUAAC | -3.13 ± 0.39 | -2.78 ± 0.43
UAUGAGCAAUAUUACGGCAA | -2.46 ± 0.38 | -2.15 ± 0.3
AGUCAGCAAUAUUACGUAUC | -1.19 ± 0.076 | -0.186 ± 0.11
GGGUAGCAAUAUUACGUCAG | – | -0.355 ± 0.32
UUCAAGCAAUAUUACGACAA | 0.0996 ± 0.083 | -0.304 ± 0.085
CGGGAGCAAUAUUACGAAUG | -3.6 ± 0.21 | -1.1 ± 0.15
ACUUAGCAAUAUUACGACCU | -0.101 ± 0.16 | -0.219 ± 0.2
CGGUAGCAAUAUUACGCAUG | -0.808 ± 0.069 | 0.339 ± 0.08
GCUUAGCAAUAUUACGGGUC | -3.24 ± 0.23 | -2.31 ± 0.28
GUCCAGCAAUAUUACGCUUC | -1.38 ± 0.083 | -0.138 ± 0.11
CGCUAGCAAUAUUACGAUUU | -3.41 ± 0.2 | -1.42 ± 0.12
AGAUAGCAAUAUUACGUGCC | -0.685 ± 0.2 | -0.528 ± 0.22
CCGGAGCAAUAUUACGGUCC | -1.43 ± 0.23 | –
AUUGAGCAAUAUUACGGCCA | -2.29 ± 0.18 | -0.921 ± 0.18
CCACAGCAAUAUUACGCGCA | -3.95 ± 0.3 | -3.06 ± 0.24
AGCGAGCAAUAUUACGCGGU | – | -2.53 ± 0.32
CAAGAGCAAUAUUACGUGCA | -2.97 ± 0.21 | -3.06 ± 0.43
UUUAAGCAAUAUUACGACAC | -2.23 ± 0.44 | –
CGAUAGCAAUAUUACGUGAG | -0.997 ± 0.07 | -0.771 ± 0.091

Sequence | self-splicing fitness (ln) (30 °C) | self-splicing fitness (ln) (37 °C)
UUGAAGCAAUAUUACGACAG | 0.483 ± 0.091 | 0.232 ± 0.11
CUUAAGCAAUAUUACGGCGG | -1.25 ± 0.095 | -0.194 ± 0.083
CCUGAGCAAUAUUACGGAUG | -1.52 ± 0.057 | -1.31 ± 0.078
AUCGAGCAAUAUUACGCCUA | – | -2.39 ± 0.32
UUGUAGCAAUAUUACGGACA | -1.61 ± 0.31 | -0.454 ± 0.39
GCCGAGCAAUAUUACGUGGC | -3.26 ± 0.14 | -2.25 ± 0.21
AGAUAGCAAUAUUACGGCGC | -1.32 ± 0.14 | -0.0937 ± 0.15
AACAAGCAAUAUUACGGUUC | -2.97 ± 0.12 | -2.43 ± 0.12
GCACAGCAAUAUUACGUAGG | -0.466 ± 0.055 | -0.109 ± 0.069
ACGAAGCAAUAUUACGAUAG | -3.09 ± 0.23 | -1.87 ± 0.21
UACCAGCAAUAUUACGGAGG | -2.34 ± 0.12 | -0.914 ± 0.12
GCAGAGCAAUAUUACGGUAC | -2.65 ± 0.22 | -1.79 ± 0.45
UAGGAGCAAUAUUACGUCGU | -1.72 ± 0.28 | -1.86 ± 0.35
GUGGAGCAAUAUUACGACGU | -1.15 ± 0.14 | 0.0174 ± 0.16
GGAUAGCAAUAUUACGCCGG | – | -1.28 ± 0.42
CCGGAGCAAUAUUACGUUCG | -4.36 ± 0.46 | -1.92 ± 0.46
GACAAGCAAUAUUACGGGCA | -0.702 ± 0.049 | -0.0944 ± 0.056
AACCAGCAAUAUUACGUCGG | -3.79 ± 0.12 | -1.41 ± 0.094
GUUCAGCAAUAUUACGGUCA | -1.42 ± 0.12 | -0.536 ± 0.086
AGUGAGCAAUAUUACGGUGC | -3.77 ± 0.27 | -1.91 ± 0.22
CCCUAGCAAUAUUACGUGCG | -2.36 ± 0.13 | -2.97 ± 0.17
UGUGAGCAAUAUUACGCAUG | -1.91 ± 0.15 | -1.96 ± 0.22
AGACAGCAAUAUUACGGCUU | -0.243 ± 0.094 | 0.564 ± 0.14
AUGAAGCAAUAUUACGUCCG | -0.499 ± 0.062 | 0.309 ± 0.086
UCUAAGCAAUAUUACGAGGC | -2.85 ± 0.31 | -2.58 ± 0.38

Sequence | self-splicing fitness (ln) (30 °C) | self-splicing fitness (ln) (37 °C)
UGCGAGCAAUAUUACGCGUA | -4.01 ± 0.32 | -1.6 ± 0.14
CUCCAGCAAUAUUACGGAUU | -2.59 ± 0.26 | -2.07 ± 0.18
CGGGAGCAAUAUUACGACUG | -3.19 ± 0.22 | -1.55 ± 0.18
UACUAGCAAUAUUACGUCAA | -1.32 ± 0.21 | -1.25 ± 0.17
GACUAGCAAUAUUACGGAGC | -1.58 ± 0.16 | -2.19 ± 0.2
ACUCAGCAAUAUUACGGGCA | -0.259 ± 0.063 | 0.203 ± 0.084
UCAAAGCAAUAUUACGUUCC | -2.89 ± 0.38 | –
GAAGAGCAAUAUUACGUCAG | -3.58 ± 0.2 | -3.03 ± 0.35
UCUGAGCAAUAUUACGCCUA | – | -0.697 ± 0.44
GCUGAGCAAUAUUACGUAUG | -3.21 ± 0.16 | -2.61 ± 0.33
AAUCAGCAAUAUUACGGAGG | -1.01 ± 0.084 | -1.18 ± 0.1
GGACAGCAAUAUUACGAGCA | -0.424 ± 0.47 | -0.637 ± 0.4
GAUUAGCAAUAUUACGCCCG | 0.359 ± 0.24 | –
AUUGAGCAAUAUUACGGAAC | -3.09 ± 0.23 | –
CUUUAGCAAUAUUACGUUCG | -1.09 ± 0.13 | 0.499 ± 0.17
UAUCAGCAAUAUUACGCCUC | – | -1.96 ± 0.47
CACAAGCAAUAUUACGCUUG | -3.66 ± 0.18 | -1.77 ± 0.15
UUCGAGCAAUAUUACGUCAA | -1.54 ± 0.2 | -2.38 ± 0.37
CUGUAGCAAUAUUACGAGGG | -3.5 ± 0.49 | -1.14 ± 0.34
ACUGAGCAAUAUUACGUAAA | – | -2.33 ± 0.24
UCGAAGCAAUAUUACGAAAA | -3.1 ± 0.3 | -1.54 ± 0.21
UGUCAGCAAUAUUACGAAUA | -0.932 ± 0.14 | -1.03 ± 0.11
ACAAAGCAAUAUUACGCGGA | -1.7 ± 0.078 | -0.866 ± 0.072
CGGAAGCAAUAUUACGAUCA | -0.698 ± 0.11 | -0.039 ± 0.1
GGAAAGCAAUAUUACGUUCU | -3.94 ± 0.21 | -3.07 ± 0.23

Sequence | self-splicing fitness (ln) (30 °C) | self-splicing fitness (ln) (37 °C)
CAGCAGCAAUAUUACGUCCU | -2.31 ± 0.17 | -0.614 ± 0.14
CUCCAGCAAUAUUACGAAGG | -3.5 ± 0.32 | -2.13 ± 0.23
ACAGAGCAAUAUUACGAAGC | -2.69 ± 0.26 | –
AGCAAGCAAUAUUACGAUUA | -1.56 ± 0.093 | -0.818 ± 0.081
AACCAGCAAUAUUACGGAAA | -1.73 ± 0.097 | -0.275 ± 0.088
GCUCAGCAAUAUUACGUCUC | -0.67 ± 0.12 | -0.754 ± 0.1
UCGUAGCAAUAUUACGCCGU | -1.52 ± 0.14 | -0.646 ± 0.16
GUGAAGCAAUAUUACGAGUU | -2.5 ± 0.12 | -1.14 ± 0.15
AUUCAGCAAUAUUACGGAUG | -0.985 ± 0.079 | -0.448 ± 0.097
UCUAAGCAAUAUUACGGAUA | -2.97 ± 0.22 | -1.77 ± 0.19
UCUAAGCAAUAUUACGAUUA | -2.61 ± 0.33 | -1.94 ± 0.34
UGAGAGCAAUAUUACGACAA | -0.796 ± 0.32 | -1.99 ± 0.43
CACCAGCAAUAUUACGUAAG | 0.114 ± 0.041 | 0.336 ± 0.061
CCCUAGCAAUAUUACGCUGU | -4.59 ± 0.31 | -2.63 ± 0.21
UUCCAGCAAUAUUACGUUCG | -2.67 ± 0.16 | -1.7 ± 0.23
UGAAAGCAAUAUUACGUCUC | -3.36 ± 0.24 | -2.18 ± 0.23
GACGAGCAAUAUUACGUCGU | -3.59 ± 0.24 | -2.34 ± 0.23
GGAGAGCAAUAUUACGUACU | -1.1 ± 0.12 | -1.16 ± 0.14
AUUAAGCAAUAUUACGCGUC | -2.77 ± 0.3 | -2.19 ± 0.38
CACUAGCAAUAUUACGGCGG | -0.21 ± 0.079 | -0.0455 ± 0.092
GGGCAGCAAUAUUACGCCGU | -2.84 ± 0.21 | -1.01 ± 0.15
AUCCAGCAAUAUUACGGGAU | -3.75 ± 0.28 | -2.9 ± 0.36
AUUAAGCAAUAUUACGUUCC | -3.07 ± 0.29 | -0.839 ± 0.27
UCGGAGCAAUAUUACGCCUG | -0.894 ± 0.26 | –
GUGAAGCAAUAUUACGUCGU | -0.585 ± 0.11 | -0.777 ± 0.12
